This passage reports protein stability index results from the supplement of paper PMC10724198.

Series [1] relates to Saccharomyces cerevisiae. Nature of the series: protein stability index of tFT-peptide fusion (C-terminal peptide) (PSI (0-1 scale)); higher = more stable (slower turnover). As to conditions: genetic background: wild type; temperature: 30 C.
Series [2] deals with Saccharomyces cerevisiae. The description is as above. As for the experimental part: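 MPS profiling in S. cerevisiae of the tFT-X12 degron library: putative degron peptides plus stable controls, 12 aa, fused to the C-terminus of a sfGFP-mCherry timer. Cells are FACS-sorted into 8 mCherry/sfGFP bins and deep-sequenced. PSI runs from 0 (unstable) to 1 (stable). Backgrounds are wild type, das1Δ and doa10Δ at 30 °C, and wild type, das1Δ, cdc34-1 and cdc53-1 at 37 °C; 2-3 technical replicates each.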

[3] abbreviates: genetic background: cdc34-1, temperature: 37 C.
Setting [4] is: genetic background: cdc53-1, temperature: 37 C.
The mark [5] stands for this setting: genetic background: das1 deletion, temperature: 30 C.
The mark [6] stands for this setting: genetic background: das1 deletion, temperature: 37 C.
The mark [7] stands for this setting: genetic background: doa10 deletion, temperature: 30 C.
Setting [8] is: genetic background: wild type, temperature: 30 C.
[9] abbreviates: genetic background: wild type, temperature: 37 C.

± gives the standard deviation of the averaged measurements.
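Also: PSI is a weighted mean of sequencing reads over stability bins, variants kept only with over 10 reads, mCherry proximal and sfGFP distal, peptide attached via GGGS linker.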

LCSCMWISAIAI: the protein stability index worked out at 0.445 ± 0.0055 in the series with Saccharomyces cerevisiae [1]; 0.5594 ± 0.0027 in the series with Saccharomyces cerevisiae [2] (setting [3]); 0.574 ± 0.006 in the series on Saccharomyces cerevisiae [2] (setting [4]); 0.435 ± 0.024 with Saccharomyces cerevisiae [2] (setting [5]); 0.582 ± 0.014 in the series with Saccharomyces cerevisiae [2] (setting [6]); 0.41 ± 0.036 in the series on Saccharomyces cerevisiae [2] (setting [7]). Also, the protein stability index in the series on Saccharomyces cerevisiae [2] (setting [8]) was found to be 0.435 ± 0.027; in the series with Saccharomyces cerevisiae [2] (setting [9]), 0.533 ± 0.039.
On to LCSLPIVCCFFL, for which the protein stability index in the series with Saccharomyces cerevisiae [1] was 0.489 ± 0.029; with Saccharomyces cerevisiae [2] (setting [3]), 0.513 ± 0.015; in the series with Saccharomyces cerevisiae [2] (setting [4]), 0.552 ± 0.016; in the series with Saccharomyces cerevisiae [2] (setting [5]), 0.434 ± 0.031; in the series with Saccharomyces cerevisiae [2] (setting [6]), 0.5703 ± 0.0027; in the series on Saccharomyces cerevisiae [2] (setting [7]), 0.424 ± 0.016. Besides, the protein stability index is 0.427 ± 0.022 with Saccharomyces cerevisiae [2] (setting [8]) and 0.534 ± 0.016 in the series on Saccharomyces cerevisiae [2] (setting [9]).
LCVGFISFCFCL: the protein stability index amounted to 0.47934 ± 0.00045 in the series on Saccharomyces cerevisiae [1]; 0.48 ± 0.032 in the series on Saccharomyces cerevisiae [2] (setting [3]); 0.4954 ± 0.0039 with Saccharomyces cerevisiae [2] (setting [4]); 0.451 ± 0.0075 with Saccharomyces cerevisiae [2] (setting [5]); 0.53 ± 0.015 in the series on Saccharomyces cerevisiae [2] (setting [6]); 0.434 ± 0.01 in the series on Saccharomyces cerevisiae [2] (setting [7]). The figures for the protein stability index in the series with Saccharomyces cerevisiae [2] (setting [8]) and with Saccharomyces cerevisiae [2] (setting [9]) were 0.435 ± 0.014 and 0.512 ± 0.017, respectively.
As to LCYFFFISLFLG, the protein stability index in the series on Saccharomyces cerevisiae [1] came to 0.328 ± 0.0056; in the series with Saccharomyces cerevisiae [2] (setting [3]), 0.628 ± 0.032; in the series on Saccharomyces cerevisiae [2] (setting [4]), 0.572 ± 0.014; in the series on Saccharomyces cerevisiae [2] (setting [5]), 0.465 ± 0.021; in the series on Saccharomyces cerevisiae [2] (setting [6]), 0.55 ± 0.0089; in the series on Saccharomyces cerevisiae [2] (setting [7]), 0.2248 ± 0.0011. Also, the protein stability index with Saccharomyces cerevisiae [2] (setting [8]) is 0.26 ± 0.023; with Saccharomyces cerevisiae [2] (setting [9]), 0.403 ± 0.0052.
Turning to LFGFILLGVSCC, the protein stability index in the series on Saccharomyces cerevisiae [1] came to 0.211 ± 0.029; with Saccharomyces cerevisiae [2] (setting [3]), 0.0506 ± 0.0034; in the series with Saccharomyces cerevisiae [2] (setting [4]), 0.0719 ± 0.0073; in the series on Saccharomyces cerevisiae [2] (setting [5]) it was 0.164 ± 0.029; in the series on Saccharomyces cerevisiae [2] (setting [6]), 0.22 ± 0.0022; with Saccharomyces cerevisiae [2] (setting [7]) it was 0.156 ± 0.0021. Further, the protein stability index with Saccharomyces cerevisiae [2] (setting [8]) turned out to be 0.168 ± 0.024; in the series on Saccharomyces cerevisiae [2] (setting [9]), 0.193 ± 0.015.
For the sequence LFLIFFSFLFLC, the protein stability index in the series on Saccharomyces cerevisiae [1] was 0.166 ± 0.028; in the series with Saccharomyces cerevisiae [2] (setting [3]), 0.135 ± 0.041; with Saccharomyces cerevisiae [2] (setting [4]), 0.0847 ± 0.014; with Saccharomyces cerevisiae [2] (setting [5]), 0.206 ± 0.024; in the series with Saccharomyces cerevisiae [2] (setting [6]), 0.26132 ± 1.1e-05; in the series on Saccharomyces cerevisiae [2] (setting [7]), 0.211 ± 0.0073. The protein stability index is 0.114 ± 0.04 in the series with Saccharomyces cerevisiae [2] (setting [8]) and 0.141 ± 0.02 with Saccharomyces cerevisiae [2] (setting [9]).
Consider LFLIYCFAFSIG, for which the protein stability index turned out to be 0.367 ± 0.049 in the series on Saccharomyces cerevisiae [1]; 0.258 ± 0.083 in the series with Saccharomyces cerevisiae [2] (setting [3]); 0.328 ± 0.032 with Saccharomyces cerevisiae [2] (setting [4]); 0.22 ± 0.034 in the series on Saccharomyces cerevisiae [2] (setting [5]); 0.4171 ± 0.00091 in the series with Saccharomyces cerevisiae [2] (setting [6]); 0.194 ± 0.02 in the series on Saccharomyces cerevisiae [2] (setting [7]). Besides, the protein stability index in the series on Saccharomyces cerevisiae [2] (setting [8]) was determined as 0.239 ± 0.021; in the series with Saccharomyces cerevisiae [2] (setting [9]) it was 0.366 ± 0.014.
LFNRCCTILVVW: the protein stability index in the series on Saccharomyces cerevisiae [1] is 0.299 ± 0.016; in the series on Saccharomyces cerevisiae [2] (setting [3]), 0.189 ± 0.025; in the series on Saccharomyces cerevisiae [2] (setting [4]), 0.22 ± 0.026; in the series on Saccharomyces cerevisiae [2] (setting [5]), 0.198 ± 0.02; in the series with Saccharomyces cerevisiae [2] (setting [6]), 0.343 ± 0.01; in the series with Saccharomyces cerevisiae [2] (setting [7]), 0.181 ± 0.0051. The results for the protein stability index with Saccharomyces cerevisiae [2] (setting [8]) and with Saccharomyces cerevisiae [2] (setting [9]) were 0.2 ± 0.029 and 0.316 ± 0.021, respectively.
With LFSVFSLVLFIF, the protein stability index in the series with Saccharomyces cerevisiae [1] came out at 0.427 ± 0.091; in the series on Saccharomyces cerevisiae [2] (setting [3]) it was 0.338 ± 0.0079; with Saccharomyces cerevisiae [2] (setting [4]), 0.413 ± 0.011; in the series on Saccharomyces cerevisiae [2] (setting [5]), 0.34 ± 0.029; in the series on Saccharomyces cerevisiae [2] (setting [6]) it was 0.501 ± 0.0086; in the series on Saccharomyces cerevisiae [2] (setting [7]) it was 0.316 ± 0.017. Further, the protein stability index with Saccharomyces cerevisiae [2] (setting [8]) stood at 0.272 ± 0.023; in the series with Saccharomyces cerevisiae [2] (setting [9]), 0.454 ± 0.0073.
LFVSLSFVVFLP: the protein stability index in the series on Saccharomyces cerevisiae [1] amounted to 0.34 ± 0.077; with Saccharomyces cerevisiae [2] (setting [3]) it was 0.276 ± 0.0041; with Saccharomyces cerevisiae [2] (setting [4]), 0.381 ± 0.014; in the series with Saccharomyces cerevisiae [2] (setting [5]), 0.26 ± 0.037; in the series with Saccharomyces cerevisiae [2] (setting [6]) it was 0.421 ± 0.013; in the series on Saccharomyces cerevisiae [2] (setting [7]), 0.261 ± 0.013. The protein stability index in the series on Saccharomyces cerevisiae [2] (setting [8]) came to 0.261 ± 0.025; with Saccharomyces cerevisiae [2] (setting [9]), 0.391 ± 0.0072.
Take LFVVFVLLTFFV: the protein stability index stood at 0.279 ± 0.089 with Saccharomyces cerevisiae [1]; 0.231 ± 0.039 in the series with Saccharomyces cerevisiae [2] (setting [3]); 0.253 ± 0.0056 with Saccharomyces cerevisiae [2] (setting [4]); 0.243 ± 0.032 in the series with Saccharomyces cerevisiae [2] (setting [5]); 0.337 ± 0.014 in the series on Saccharomyces cerevisiae [2] (setting [6]); 0.207 ± 0.02 in the series with Saccharomyces cerevisiae [2] (setting [7]). In addition, the protein stability index in the series on Saccharomyces cerevisiae [2] (setting [8]) was 0.217 ± 0.031; in the series on Saccharomyces cerevisiae [2] (setting [9]), 0.29 ± 0.011.
With LGSCSLIYRKFS, the protein stability index in the series with Saccharomyces cerevisiae [1] was 0.204 ± 0.0059; with Saccharomyces cerevisiae [2] (setting [3]), 0.597 ± 0.026; in the series with Saccharomyces cerevisiae [2] (setting [4]) it was 0.728 ± 0.017; in the series on Saccharomyces cerevisiae [2] (setting [5]), 0.639 ± 0.02; with Saccharomyces cerevisiae [2] (setting [6]), 0.703 ± 0.029; with Saccharomyces cerevisiae [2] (setting [7]), 0.0934 ± 0.0075. The values for the protein stability index in the series on Saccharomyces cerevisiae [2] (setting [8]) and in the series with Saccharomyces cerevisiae [2] (setting [9]) were 0.0958 ± 0.017 and 0.172 ± 0.021, respectively.
For LHLSSFVILLEL, the protein stability index was 0.421 ± 0.021 with Saccharomyces cerevisiae [1]; 0.36297 ± 6.8e-05 in the series with Saccharomyces cerevisiae [2] (setting [3]); 0.317 ± 0.035 in the series with Saccharomyces cerevisiae [2] (setting [4]); 0.353 ± 0.024 in the series on Saccharomyces cerevisiae [2] (setting [5]); 0.458 ± 0.018 with Saccharomyces cerevisiae [2] (setting [6]); 0.478 ± 0.023 in the series with Saccharomyces cerevisiae [2] (setting [7]). The protein stability index in the series with Saccharomyces cerevisiae [2] (setting [8]) was 0.346 ± 0.014; in the series with Saccharomyces cerevisiae [2] (setting [9]), 0.437 ± 0.021.
Take LIEMVTTRYRLC: the protein stability index in the series with Saccharomyces cerevisiae [1] is 0.242 ± 0.044; in the series with Saccharomyces cerevisiae [2] (setting [3]), 0.59 ± 0.02; with Saccharomyces cerevisiae [2] (setting [4]), 0.7192 ± 0.0016; in the series with Saccharomyces cerevisiae [2] (setting [5]) it was 0.622 ± 0.016; with Saccharomyces cerevisiae [2] (setting [6]), 0.717 ± 0.034; in the series with Saccharomyces cerevisiae [2] (setting [7]) it was 0.132 ± 0.0065. The protein stability index was determined as 0.128 ± 0.02 with Saccharomyces cerevisiae [2] (setting [8]) and 0.189 ± 0.018 in the series on Saccharomyces cerevisiae [2] (setting [9]).
On to LKTKKKKTNTQK, for which the protein stability index with Saccharomyces cerevisiae [1] worked out at 0.495 ± 0.037; in the series on Saccharomyces cerevisiae [2] (setting [3]), 0.627 ± 0.0068; in the series on Saccharomyces cerevisiae [2] (setting [4]), 0.633 ± 0.057; in the series on Saccharomyces cerevisiae [2] (setting [5]) it was 0.717 ± 0.03; with Saccharomyces cerevisiae [2] (setting [6]), 0.68 ± 0.038; in the series with Saccharomyces cerevisiae [2] (setting [7]), 0.67 ± 0.033. Moreover, the protein stability index in the series with Saccharomyces cerevisiae [2] (setting [8]) was 0.715 ± 0.056; in the series on Saccharomyces cerevisiae [2] (setting [9]), 0.683 ± 0.0086.
